In assay [1] the target is Guanylate cyclase C (GC-C) (human), P25092.
For assay [2] the target is unchanged. Kind of assay: cell-based or functional assay.

The term Ki denotes the dissociation constant of the complex between target and ligand, obtained from inhibition or displacement. The low end stands for higher affinity, the high end for lower affinity. The EC50 is the concentration at which the effect is half-maximal. A higher EC50 goes with weaker potency.

Chain of Guanylate cyclase C (GC-C) (human), P25092 (P25092 24-1073): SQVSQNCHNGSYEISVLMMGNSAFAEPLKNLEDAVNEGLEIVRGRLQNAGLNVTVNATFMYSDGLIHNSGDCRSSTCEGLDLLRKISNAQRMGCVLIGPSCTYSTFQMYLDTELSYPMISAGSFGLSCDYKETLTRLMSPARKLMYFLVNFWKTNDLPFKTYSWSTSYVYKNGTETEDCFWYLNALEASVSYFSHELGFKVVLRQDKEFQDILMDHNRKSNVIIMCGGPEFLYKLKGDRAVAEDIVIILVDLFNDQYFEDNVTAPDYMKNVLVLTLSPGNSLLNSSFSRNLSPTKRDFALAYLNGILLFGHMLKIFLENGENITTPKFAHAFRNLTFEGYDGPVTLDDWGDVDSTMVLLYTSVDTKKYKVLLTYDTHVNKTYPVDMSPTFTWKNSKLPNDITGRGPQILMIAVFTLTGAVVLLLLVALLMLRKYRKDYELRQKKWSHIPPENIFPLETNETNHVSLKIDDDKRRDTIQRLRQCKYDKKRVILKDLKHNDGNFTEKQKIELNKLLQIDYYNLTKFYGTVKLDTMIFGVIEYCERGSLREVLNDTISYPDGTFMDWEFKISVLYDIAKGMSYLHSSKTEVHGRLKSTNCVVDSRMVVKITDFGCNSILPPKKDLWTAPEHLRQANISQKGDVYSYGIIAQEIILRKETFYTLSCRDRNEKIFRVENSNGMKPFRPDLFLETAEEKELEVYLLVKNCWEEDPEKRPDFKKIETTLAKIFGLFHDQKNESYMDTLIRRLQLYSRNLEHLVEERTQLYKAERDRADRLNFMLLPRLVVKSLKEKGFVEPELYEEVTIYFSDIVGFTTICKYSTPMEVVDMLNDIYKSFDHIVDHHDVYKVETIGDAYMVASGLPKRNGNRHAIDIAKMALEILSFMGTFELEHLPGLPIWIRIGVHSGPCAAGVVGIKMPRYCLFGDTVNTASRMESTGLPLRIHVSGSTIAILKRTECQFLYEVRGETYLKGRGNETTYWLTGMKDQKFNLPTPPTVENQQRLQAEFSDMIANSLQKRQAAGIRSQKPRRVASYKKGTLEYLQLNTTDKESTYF

Consider CCELCCNPACTGCY (modifications not checked) [Peptide 3], for which the Ki in assay [1] came out at 1.2 nM. In assay [2], this molecule registered an EC50 at pH 5 (nM), cGMP response of T84 cells of 16 nM.

The values are drawn from patent publication US20150030697A1.
